Experimental findings from FireProtDB (doi:10.1002/pro.5560040510) are described below.

As a reminder, the Tm is the temperature at the midpoint of the melting transition.

For this series the following is noted: Bos taurus, glycine 40 mM, reversible: no, whole UniProt chain shown; for Tm / unfolding enthalpy (van 't Hoff): Thermal, Absorbance.

B1: Adrenodoxin, mitochondrial wild type, P00257 (protein)
chain: MAARLLRVASAALGDTAGRWRLLARPRAGAGGLRGSRGPGLGGGAVATRTLSVSGRAQSSSEDKITVHFINRDGETLTTKGKIGDSLLDVVVQNNLDIDGFGACEGTLACSTCHLIFEQHIFEKLEAITDEENDMLDLAYGLTDRSRLGCQICLTKAMDNMTVRVPDAVSDARESIDMGMNSSKIE
As for B1, the Tm is, setting by setting: (pH 6.5) 47.5 °C; (pH 7.4) 53.7 °C; (pH 8.5) 53.5 °C; (pH 9.5) 54 °C; (pH 10.5) 53.2 °C. For the same protein, the “unfolding enthalpy (van 't Hoff)” value by setting is: (pH 6.5) 376 kJ/mol; (pH 7.4) 383 kJ/mol; (pH 8.5) 343 kJ/mol; (pH 9.5) 331 kJ/mol; (pH 10.5) 270 kJ/mol. The unfolding free energy (pH 8.5, 25 °C, Urea, DSC) stood at 21 kJ/mol.
